Changes are numbered by the printed parent chain. One block for each binder: values may come before it.
What was measured:
[1] = biological target: T1, human galectin-2, natively expressed (LS174T cells; human colon biopsy sections) (human, UniProt P05162 1-132); assay: immunofluorescence of frozen healthy colon sections, biotinylated IgG, streptavidin-alexa 488
T1 construct: Cytoplasmic protein in fixed, methanol-permeabilized LS174T cells, and native protein in frozen colon sections; also called natively expressed galectin-2 antigen
T1 sequence: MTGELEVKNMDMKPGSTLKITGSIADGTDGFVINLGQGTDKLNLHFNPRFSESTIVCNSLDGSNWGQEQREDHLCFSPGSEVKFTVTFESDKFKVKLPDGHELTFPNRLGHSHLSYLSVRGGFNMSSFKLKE
Protocol: (§1) Detection of the primary antibody was performed with streptavidin-alexa 488 (Invitrogen). Blood vessels were detected using a mouse anti-human CD31 antibody (eBioscience) followed by detection with an anti-mouse alexa 594 antibody (Invitrogen). Counterstaining for cell nuclei was performed with DAPI (eBioscience).
(§2) (i) Freshly frozen colon biopsy samples from a healthy donor were stained according to already published methods (Pfaffen et al., Eur J Nucl Med Mol Imagin (2010) 37: 1559-65). Briefly, purified biotinylated antibodies in IgG format were added at the final concentration of 2 μg/ml onto the sections. Detection of the primary antibody was performed with streptavidin-alexa 488 (Invitrogen). Blood vessels were detected using a mouse anti-human CD31 antibody (eBioscience) followed by detection with an anti-mouse alexa 594 antibody (Invitrogen). Counterstaining for cell nuclei was performed with DAPI (eBioscience).
as §2, with “(ii)” for “(i)”, “Detection of the primary antibody was performed with streptavidin-alexa 488 (Invitrogen).” left out, “Counterstaining for cell nuclei was performed with DAPI (eBioscience).” left out

[2] = biological target: T2, human cadherin-17, native, in human ulcerative colitis biopsy sections (human, UniProt Q12864 23-832); assay: immunofluorescence of frozen human ulcerative colitis sections, human IgG1 format, rabbit anti-human IgG and goat anti-rabbit Alexa 488
T2 construct: Native protein in tissue; also called cognate antigen (of AV17)
T2 sequence: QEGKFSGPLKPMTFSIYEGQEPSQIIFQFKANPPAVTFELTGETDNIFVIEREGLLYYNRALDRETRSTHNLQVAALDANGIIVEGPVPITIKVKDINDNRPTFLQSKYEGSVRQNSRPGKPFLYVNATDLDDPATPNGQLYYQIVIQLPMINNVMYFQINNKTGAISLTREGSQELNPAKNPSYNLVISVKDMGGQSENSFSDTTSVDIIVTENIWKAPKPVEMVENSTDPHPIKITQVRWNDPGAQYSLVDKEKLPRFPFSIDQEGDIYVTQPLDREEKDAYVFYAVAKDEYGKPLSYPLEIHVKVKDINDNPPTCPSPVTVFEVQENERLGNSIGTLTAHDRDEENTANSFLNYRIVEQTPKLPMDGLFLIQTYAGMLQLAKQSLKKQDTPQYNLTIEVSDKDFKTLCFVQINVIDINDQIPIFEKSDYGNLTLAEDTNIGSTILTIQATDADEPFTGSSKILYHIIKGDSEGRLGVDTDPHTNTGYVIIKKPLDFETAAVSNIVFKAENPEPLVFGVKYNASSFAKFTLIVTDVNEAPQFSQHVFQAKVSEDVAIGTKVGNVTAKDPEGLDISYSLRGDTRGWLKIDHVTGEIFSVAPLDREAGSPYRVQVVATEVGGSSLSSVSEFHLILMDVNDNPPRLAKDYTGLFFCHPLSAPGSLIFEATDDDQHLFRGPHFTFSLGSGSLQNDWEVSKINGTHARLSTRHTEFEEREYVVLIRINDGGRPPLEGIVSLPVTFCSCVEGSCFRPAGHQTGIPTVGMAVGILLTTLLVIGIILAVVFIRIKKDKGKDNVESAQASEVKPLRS
Protocol: Purified antibodies in human IgG1 format were added at the final concentration of 2 μg/ml to the sections. […] A positive control was performed by counterstaining for cell nuclei was performed with DAPI (eBioscience). Sections were mounted with fluorescent mounting medium (DAKO) followed by analysis using an Axioskop2 microscope with a 10× objective (Carl Zeiss AG, Jena, Germany). A stronger intensity signal in the colonic crypts region can be detected in the sections stained with CPR02, AV17 and FF06 when compared to the signal observed with an irrelevant antibody (Negative Control).
Freshly frozen human biopsy samples of Ulcerative Colitis were stained as described in the following lines. In brief, purified antibodies in human IgG1 format were added at the final concentration of 2 μg/ml to the sections. […] Further positive control was performed by counterstaining for cell nuclei was performed with DAPI (eBioscience). Sections were mounted with fluorescent mounting medium (DAKO) followed by analysis using an Axioskop2 microscope with a 10× objective (Carl Zeiss AG, Jena, Germany).

[3] = biological target: T3, human Agr2, native, in human colon biopsy sections (human, UniProt O95994 21-175); assay: immunofluorescence of frozen healthy colon sections, biotinylated IgG, streptavidin-alexa 488
T3 construct: Native protein in healthy-donor colon and ulcerative colitis sections; also called human Agr2 antigen
T3 sequence: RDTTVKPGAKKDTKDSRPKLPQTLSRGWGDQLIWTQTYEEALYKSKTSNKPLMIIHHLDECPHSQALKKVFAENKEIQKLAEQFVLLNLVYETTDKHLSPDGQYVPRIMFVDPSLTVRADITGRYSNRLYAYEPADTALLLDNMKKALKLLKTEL
Protocol: as §1, §2
as §2, with “(ii)” for “(i)”, “Detection of the primary antibody was performed with streptavidin-alexa 488 (Invitrogen).” left out, “Counterstaining for cell nuclei was performed with DAPI (eBioscience).” left out

binding result [1]: binds
B1: FF06 in IgG format (antibody, V domains shown)
VH: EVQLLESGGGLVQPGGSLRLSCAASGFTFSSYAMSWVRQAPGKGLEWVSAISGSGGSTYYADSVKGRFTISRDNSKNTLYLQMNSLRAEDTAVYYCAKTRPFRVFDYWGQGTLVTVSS
VL: SSELTQDPAVSVALGQTVRITCQGDSLRSYYASWYQQKPGQAPVLVIYGKNNRPSGIPDRFSGSSSGNTASLTITGAQAEDEADYYCNSSRSRRPAVVFGGGTKLTVLG
notes: also called anti-Galectin-2 (FF06)

B2: AV17 in human IgG1 format (antibody, V domains shown)
VH: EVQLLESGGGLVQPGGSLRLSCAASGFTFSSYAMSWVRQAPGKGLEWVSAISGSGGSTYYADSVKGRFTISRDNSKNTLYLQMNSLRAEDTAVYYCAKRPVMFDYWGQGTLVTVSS
VL: B1 VL with R91L, S92P, R93S, R94P, P95Q, A96V
notes: Human IgG1 format; also called anti-cadherin 17 (AV17)
binding result [2]: binds

binding result [3]: binds
B3: CPR02 in IgG format (antibody, V domains shown)
VH: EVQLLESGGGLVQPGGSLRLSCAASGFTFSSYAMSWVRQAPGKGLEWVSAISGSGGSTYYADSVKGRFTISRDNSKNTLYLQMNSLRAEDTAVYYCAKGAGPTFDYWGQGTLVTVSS
VL: B1 VL with R91P, S92P, R93T, P95A, A96V
notes: also called anti-Agr2 (CPR02)

From patent US20190309060A1 (PHILOGEN S P A, published 2019)
